The supplement of paper PMC12042874
± gives the uncertainty stated by the source.

experiment: amyloid nucleation score (Sup35N fusion, yeast selection) (log enrichment); library NNK2; higher = more nucleation; inactive = no reads after selection
How it was run: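 Psi-negative yeast expressed Sup35N fused to peptides of 20 random codons. They were induced 24 hours with 100 μM copper sulfate, grown 7 days at 30°C without adenine and uracil, and their plasmid inserts from input and output were Illumina-sequenced. The nucleation score is the DiMSum log enrichment of output over input reads, centred on the mode score of non-aggregating sequences. Sequences with under 100 input reads were excluded.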

| Substance | amyloid nucleation score |
| --- | --- |
| CQAYSSIRFEVL | inactive |
| CQFSTQMMVICSFTTLTSVL | 1.98 ± 0.13 |
| CRCTSIRGLKCIRW | 0.767 ± 0.15 |
| CRHYRRYLLNLQVGWMR | 0.978 ± 0.27 |
| CRIQPDFRFMCLRNCGLESR | -0.855 ± 1 |
| CRKRGH | 1.33 ± 0.49 |
| CRLCWE | -0.459 ± 0.61 |
| CRLEGKTSVPCDNRGLGWAR | 0.938 ± 0.47 |
| CRLFQSQIYERYTSRCVYRF | -1.05 ± 0.79 |
| CRMSLRYTVPYSVQPLRGSL | 0.156 ± 0.41 |
| CRNQGVCDAGQSLLN | 0.897 ± 0.29 |
| CRRRSPTNGGVNVRN | 0.41 ± 0.74 |
| CRVCRNWIWGTLSSGVTSRL | -0.61 ± 0.49 |
| CRWDFVLWRFLCSIKKDWVT | -0.386 ± 0.79 |
| CSAITEGCKGFVHDVSGVML | -0.27 ± 0.56 |
| CSFHVGNLTWWANVEARVVV | 0.176 ± 0.29 |
| CSFSIAFWKS | 0.714 ± 0.3 |
| CSKMLTSNRVC | -0.583 ± 1.1 |
| CSNADFDSRVFTDANMIFPK | 4.01 ± 0.098 |
| CSNGLYPNTVGRLEYS | -1.05 ± 0.39 |
| CSRIHMRIARSSLF | 1.18 ± 0.39 |
| CSRRNRRIGVALRFIFLDIY | -0.956 ± 0.78 |
| CSRRYSLRL | -0.319 ± 0.54 |
| CSSWRAYWNSGLQFLVIFGV | -0.737 ± 0.32 |

| Substance | amyloid nucleation score |
| --- | --- |
| CTIKIGWYWL | 7.512 ± 0.07 |
| CTILVILSKVSYCQYPWEHV | 1.52 ± 0.14 |
| CTMLLGSESEGWSLQIFVLL | 0.05 ± 0.62 |
| CTPNWRLSSFRWYVLRTFSE | 0.052 ± 0.37 |
| CTSCLGKRFSCLTINAGLSW | -0.916 ± 0.56 |
| CTWTYE | 5.92 ± 0.077 |
| CTYHAQVFTFDHPGRSTRYS | -0.274 ± 0.76 |
| CVINKKNYDSFGFSVFTFYK | 3.19 ± 0.074 |
| CVMGPAT | 1.02 ± 0.3 |
| CVSFVQSFCYIHIQLNYHCR | -0.43 ± 1.1 |
| CVVECIRSNHPSNFMMRNLG | inactive |
| CWGHS | -0.792 ± 0.79 |
| CWLFNTY | 3.04 ± 0.14 |
| CWLGASTSNGLPAAGPSGLH | 0.868 ± 0.55 |
| CWNDVIQKMVQYNTINFVLS | 4.88 ± 0.063 |
| CWSTQDHLNCVID | inactive |
| CWVRLIVGMTCYAFKGGSVV | 0.426 ± 0.43 |
| CYGYMIMSAFMVGHWEPDRM | 0.205 ± 0.77 |
| CYLGVKCVLGWQSWRVVYSN | inactive |
| CYNVGEGIVARIRGGSKGLK | 0.619 ± 0.81 |
| CYRNNWTMWVVSQRYHRNGK | -0.289 ± 0.22 |
| CYRPDRPIITIDLVCVRFS | 1.9 ± 0.2 |
| CYSKLNASSVCIKFLPSQHE | -0.314 ± 0.27 |
| CYWERWAS | -1.84 ± 0.78 |

| Substance | amyloid nucleation score |
| --- | --- |
| CYYFLFNS | 2.31 ± 0.062 |
| DAAHSFYLSSGNESFVLELT | -0.327 ± 0.63 |
| DALDTRKLYN | inactive |
| DCPLYRWDTWRLSGSRT | inactive |
| DCSYYPSGIFMGLMFNLIAM | 3.23 ± 0.064 |
| DCYSQPMLRVLDSVAHSVWF | 0.369 ± 0.43 |
| DDFRGIAGIWWRG | 0.785 ± 0.51 |
| DDIFNWFGVLGSNPLMVSVG | 0.811 ± 0.33 |
| DDLGMTFRLG | -0.337 ± 0.79 |
| DDLLIRYC | -0.022 ± 0.21 |
| DDVSIL | 0.14 ± 1 |
| DEGSNIGHGSLDIHRDCALL | -0.264 ± 0.23 |
| DERGMCSLWSRCEYV | -0.287 ± 0.29 |
| DERSLLDLHYCR | 0.912 ± 0.43 |
| DESWETIFLYKCRGQNW | -0.213 ± 1.1 |
| DFALALVYTSMCLVVLYSML | 4.4 ± 0.063 |
| DFANFMGCMVNEAPRLHFAL | 0.404 ± 0.38 |
| DFIITVL | -1.05 ± 0.78 |
| DFIKMVV | 3.73 ± 0.12 |
| DFITVYECHCRIFGCVDREA | -0.352 ± 0.5 |
| DFLSVYSYIKWWAA | -0.886 ± 0.49 |
| DFQIFYFARLFRTV | -0.681 ± 0.79 |
| DFSFVANCSDYLLNILFKGE | -0.066 ± 0.74 |
| DGAGKYTSPSDYDDRYRLAV | 0.466 ± 0.17 |
